Results taken from patent publication US20100255578A1.

What was measured:
H296-H271 = test: ELISA; H296-H271 coated at 7 ug/mL; HRP-labeled FNH3-8, ABTS; blank subtracted
[1] = target: H-296, a polypeptide comprising a heparin binding domain and a CS-1 domain of fibronectin (Homo sapiens (Human)) (UniProt P02751); test: ELISA; H-296 coated at 25 ug/mL in 0.2 M acetate buffer pH 3.8; HRP-labeled FNH3-8, ABTS

H296-H271, sequence (chain, as listed by the source limits assumed): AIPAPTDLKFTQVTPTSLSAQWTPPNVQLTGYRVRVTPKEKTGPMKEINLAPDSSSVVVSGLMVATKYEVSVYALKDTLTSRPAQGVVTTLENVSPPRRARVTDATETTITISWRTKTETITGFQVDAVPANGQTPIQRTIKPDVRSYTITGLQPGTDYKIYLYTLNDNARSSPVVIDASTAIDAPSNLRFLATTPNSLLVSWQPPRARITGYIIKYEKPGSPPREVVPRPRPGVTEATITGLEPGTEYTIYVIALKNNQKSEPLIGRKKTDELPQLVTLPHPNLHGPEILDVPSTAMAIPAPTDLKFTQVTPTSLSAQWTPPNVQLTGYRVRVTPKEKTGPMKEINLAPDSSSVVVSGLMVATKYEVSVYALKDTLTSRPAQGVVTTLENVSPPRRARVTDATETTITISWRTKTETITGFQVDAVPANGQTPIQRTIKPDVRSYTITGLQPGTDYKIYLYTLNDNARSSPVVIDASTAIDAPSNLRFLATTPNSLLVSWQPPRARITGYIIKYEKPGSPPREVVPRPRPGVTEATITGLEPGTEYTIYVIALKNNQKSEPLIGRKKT

405 nm (Found Value - Blank) (H296-H271): 0.518 | absorbance at 405 nm [1]: 0.243
Substance: FNH3-8 antibody (manufactured by TAKARA BIO INC.) labeled with HRP
